The source of these data is publication PMC8805157 (2021).

Sequences and labels used below:
B1: GFP-Atg11 (wild type) [S. cerevisiae] / Atg1-PA [S. cerevisiae] (parent complex)
chain 1: MADADEYSTAPTQQEITPLQTTATIINAISGECITTNVDFFVSLDKFKQFIARKWKIPPDQLLILLPYGNKLKPSMFKELLINRSFTLNDFYVYDRRLFSLVSKPTPTNLLTSKDSNPMNSPNSNDLTETLEYLIKNSHISQYQGSDTIMIKPMPSPLEDADVDLSRLNYHSVTSLLTTNLGWLSALEIDVHYFKSLIPDIIAHIKRIFDGLTVCSQYLKLYCFDVESLYNSNVQFLNQLVDNGMTSKWEKCFNDTLSKLTALEGDSLQKFINIESLLENEKSVKILNHSINGKLNKIKREIDENASFRDIITVNIDRLRQMFTPNESKFELEDQMAESFEVLVSEMRTRSRNVLDKEEEEFNSQEFLKSMNVMLEKDKKESVKTLFTISQALYSQIGELIDLKKSLQKHAVAILGNIAFTQMEILGIKRLLLNECNKDLELYKKYEVEFAQVEDLPLIYGLYLIEKYRRLSWFQQILSFISNFNQDLELFKQNELRTRNKWVKNFGSIATVFCEDLLSSSDFKRLNEYHSHTSPPNEDEEDENENSIANYRQDLVKVSQAIDNYMTQIKETDVSEPIIDLLSKTLFETKRFHIIYSNFKNNNNNSSNGNSISPEGSIALKSDDVVKGYKTRIKKLESLLHEFQYSDIGHWPQGVLNTHLKPFRGSATSINKKKFLGASVLLEPANISEVNIDSVSQANNHQIQELESNVDDLLHQLQLLKEENNRKSMQISEMGKKISDLEVEKTAYRETLTNLNQELARLTNEEQSHRTEIFTLNASFKKQLNDIISQDNEKIEKLTGDYDDVSKSRERLQMDLDESNKKHEQEVNLLKADIERLGKQIVTSEKSYAETNSSSMEKGEKFETIPLAEDPGRENQISAYTQTLQDRIFDIISTNIFILENIGLLLTFDNNNNIQIRRVKGLKKGTAQSNILDESTQMLDAHDNSLIKSPVFQKLKDEYELIKSVANGSEKDTQQSIFLGNITQLYDNKLYEVAVIRRFKDIETLAKKLTKENKIKRTLLERFQREKVTLRNFQIGDLALFLPTRENVNSVGSMSSSTSSLSSSFSSVDLSTPPPLDAMSIQSSPSVIHSNVINQASISGRDKNKLMRPWAAFTAFEESTRYFLKDEKGLTKGKEWFVGRIVTLEHFVADSPSNNPFRLPKGSVWFQVTAVVVSYQGV
chain 2: MGDIKNKDHTTSVNHNLMASAGNYTAEKEIGKGSFATVYRGHLTSDKSQHVAIKEVSRAKLKNKKLLENLEIEIAILKKIKHPHIVGLIDCERTSTDFYLIMEYCALGDLTFLLKRRKELMENHPLLRTVFEKYPPPSENHNGLHRAFVLSYLQQLASALKFLRSKNLVHRDIKPQNLLLSTPLIGYHDSKSFHELGFVGIYNLPILKIADFGFARFLPNTSLAETLCGSPLYMAPEILNYQKYNAKADLWSVGTVVFEMCCGTPPFRASNHLELFKKIKRANDVITFPSYCNIEPELKELICSLLTFDPAQRIGFEEFFANKVVNEDLSSYELEDDLPELESKSKGIVESNMFVSEYLSKQPKSPNSNLAGHQSMADNPAELSDALKNSNILTAPAVKTDHTQAVDKKASNNKYHNSLVSDRSFEREYVVVEKKSVEVNSLADEVAQAGFNPNPIKHPTSTQNQNVLLNEQFSPNNQQYFQNQGENPRLLRATSSSSGGSDGSRRPSLVDRRLSISSLNPSNALSRALGIASTRLFGGANQQQQQQQITSSPPYSQTLLNSQLFHELTENIILRIDHLQHPETLKLDNTNIVSILESLAAKAFVVYSYAEVKFSQIVPLSTTLKGMANFENRRSMDSNAIAEEQDSDDAEEEDETLKKYKEDCLSTKTFGKGRTLSATSQLSATFNKLPRSEMILLCNEAIVLYMKALSILSKSMQVTSNWWYESQEKSCSLRVNVLVQWLREKFNECLEKADFLRLKINDLRFKHASEVAENQTLEEKGSSEEPVYLEKLLYDRALEISKMAAHMELKGENLYNCELAYATSLWMLETSLDDDDFTNAYGDYPFKTNIHLKSNDVEDKEKYHSVLDENDRIIIRKYIDSIANRLKILRQKMNHQN
B2: GFP-Atg11 (wild type) [S. cerevisiae] / PA-Atg19 [S. cerevisiae] (parent complex)
chain 1: B1 chain 1
chain 2: MNNSKTNQQMNTSMGYPLTVYDECNKFQLIVPTLDANIMLWCIGQLSLLNDSNGCKHLFWQPNDKSNVRILLNNYDYGHLFKYLQCQRKCSVYIGEGTLKKYNLTISTSFDNFLDLTPSEEKESLCREDAHEDPVSPKAGSEEEISPNSTSNVVVSRECLDNFMKQLLKLEESLNKLELEQKVTNKEPNHRISGTIDIPEDRSELVNFFTELKTVKQLEDVFQRYHDYERLSQECDSKTEIASDHSKKETKIEVEPPNERSLQITMNQRDNSLYFQLFNNTNSVLAGNCKLKFTDAGDKPTTQIIDMGPHEIGIKEYKEYRYFPYALDLEAGSTIEIENQYGEVIFLGKYGSSPMINLRPPSRLSAESLQASQEPFYSFQIDTLPELDDSSIISTSISLSYDGDDNEKALTWEEL
B3: GFP-Atg11 (wild type) [S. cerevisiae] / Atg9-PA [S. cerevisiae] (parent complex)
chain 1: B1 chain 1
chain 2: MERDEYQLPNSHGKNTFLSRIFGLQSDEVNPSLNSQEMSNFPLPDIERGSSLLHSTNDSREDVDENDLRVPESDQGTSTEEEDEVDEEQVQAYAPQISDGLDGDHQLNSVTSKENVLETEKSNLERLVEGSTDDSVPKVGQLSSEEEEDNEFINNDGFDDDTPLFQKSKIHEFSSKKSNTIEDGKRPLFFRHILQNNRPQRDTQKLFTSSNAIHHDKDKSANNGPRNINGNQKHGTKYFGSATQPRFTGSPLNNTNRFTKLFPLRKPNLLSNISVLNNTPEDRINTLSVKERALWKWANVENLDIFLQDVYNYYLGNGFYCIILEKILNICTLLFVVFVSTYMGHCVDYSKLPTSHRVSDIIIDKCYSNSITGFTKFFLWMFYFFVILKIVQLYFDVQKLSELQNFYKYLLNISDDELQTLPWQNVIQQLMYLKDQNAMTANVVEVKAKNRIDAHDVANRIMRRENYLIALYNSDILNLSLPIPLFRTNVLTKTLEWNINLCVMGFVFNESGFIKQSILKPSQREFTREELQKRFMLAGFLNIILAPFLVTYFVLLYFFRYFNEYKTSPGSIGARQYTPIAEWKFREYNELYHIFKKRISLSTTLANKYVDQFPKEKTNLFLKFVSFICGSFVAILAFLTVFDPENFLNFEITSDRSVIFYITILGAIWSVSRNTITQEYHVFDPEETLKELYEYTHYLPKEWEGRYHKEEIKLEFCKLYNLRIVILLRELTSLMITPFVLWFSLPSSAGRIVDFFRENSEYVDGLGYVCKYAMFNMKNIDGEDTHSMDEDSLTKKIAVNGSHTLNSKRRSKFTAEDHSDKDLANNKMLQSYVYFMDDYSNSENLTGKYQLPAKKGYPNNEGDSFLNNKYSWRKQFQPGQKPELFRIGKHALGPGHNISPAIYSTRNPGKNWDNNNNGDDIKNGTNNATAKNDDNNGNNDHEYVLTESFLDSGAFPNHDVIDHNKMLNSNYNGNGILNKGGVLGLVKEYYKKSDVGR

In the first experiment the parent is B1. The experiment can be described thus: CoIP (quantified western blot); endogenously driven Atg1-PA; overexpressed GFP-Atg11; four independent replicates; read off a plot. For orientation: In western blotting, separated proteins are transferred to a membrane and probed.
As for chain 1 Y565E, the ratio to parent was roughly 0.13.

A further experiment covers variants of B2. The experiment is described as follows: CoIP (quantified western blot); proteins overexpressed with a CUP1 promoter in an atg11∆ strain; five independent replicates; read off a plot.
Take chain 1 Y565E: the ratio to parent is roughly 0.88.

Variants of B3 are the subject of another experiment. The experiment is described as follows: CoIP (quantified western blot); proteins overexpressed with a CUP1 promoter in an atg11∆ strain; ≥ 3 independent replicates; read off a plot.
Consider chain 1 Y565E, for which the ratio to parent was roughly -0.05.
